Residue numbers refer to the chain shown, from its start. Numbers in names are those of the source.
Tests used:
[1] = biological target: T1, purified human FAP antigen (human, UniProt Q12884 26-760, limits assumed); assay: ELISA, plate coated with purified human FAP antigen (FIG. 56A-56C)
Protocol: (§1) Binding kinetics of the novel antigen binding constructs to a purified human FAP antigen was assessed using ELISA. For this assay, a 96 well ELISA plate was coated with the human-FAP antigen diluted to a concentration of 2 mg/mL in coating buffer (0.05M sodium carbonate-bicarbonate buffer, pH 9.6). 100 μl of this coating solution was added to each well in the plate and incubate at 4° C. overnight. The plate was washed 3 times with 300 μl per well of washing buffer (PBS with 0.05% Tween-20). After the last wash, the plate was blocked by adding to each well 200 μl of blocking buffer (PBS with 1% BSA) warmed to room temperature. The plate was then incubated at room temperature for 1 hour under gentle agitation. After blocking, the plate was washed 3 times with 300 μl per well of washing buffer. Dilution samples for each minibody were created by making 2.5× dilutions from a starting sample at 100 ng/mL, or 250 ng/mL, or 1000 ng/mL or 3000 ng/mL in 100 μL sample buffer (PBS with 1% BSA). The dilution samples were transferred to the assay plate and incubated at room temperature for 1 hour under gentle agitation. The plate was then washed 3 times with 300 μl per well of washing buffer.
(§2) Detection was performed by adding 100 μl of HRP labeled detection secondary antibody at an appropriate dilution and incubating the plate at room temperature for 1 hour under gentle agitation. The plate was then washed 3 times with 300 μl per well of washing buffer. For color development, 100 μl of TMB substrate regent, pre-warmed to room temperature, was added to the plate and incubated in the dark at room temperature for 15 min. The reaction was then stopped by adding 100 μl of 650 nm stop solution to the plate and mixed for 1 min at room temperature under gentle agitation. The plate is recorded by reading OD at 650 nm in a plate reader within 20 min after terminating the reaction.

[2] = biological target: FAP (UniProt Q12884 26-760, limits assumed); assay: binding kinetics, method not stated (FIG. 42B)
[3] = biological target: T2, purified murine FAP antigen (murine, UniProt P97321 26-761, limits assumed); assay: ELISA, cross-reactivity (FIG. 57B)
[4] = biological target: T1, purified human FAP antigen; assay: ELISA, plate coated with purified human FAP antigen (FIG. 91D)
Protocol: as §1

[5] = biological target: T1, purified human FAP antigen; assay: ELISA, plate coated with purified human FAP antigen (FIG. 91B)
Protocol: as §1

[6] = biological target: T2, purified murine FAP antigen; assay: ELISA, cross-reactivity (FIG. 92)
[7] = biological target: T1, purified human FAP antigen; assay: ELISA, plate coated with purified human FAP antigen (FIG. 91E)
Protocol: as §1

[8] = biological target: T2, purified murine FAP antigen; assay: ELISA, cross-reactivity (FIG. 57A)
[9] = biological target: T1, purified human FAP antigen; assay: ELISA, plate coated with purified human FAP antigen (FIG. 56F-56G)
Protocol: as §1, §2

T2 sequence (P97321 26-761 limits assumed): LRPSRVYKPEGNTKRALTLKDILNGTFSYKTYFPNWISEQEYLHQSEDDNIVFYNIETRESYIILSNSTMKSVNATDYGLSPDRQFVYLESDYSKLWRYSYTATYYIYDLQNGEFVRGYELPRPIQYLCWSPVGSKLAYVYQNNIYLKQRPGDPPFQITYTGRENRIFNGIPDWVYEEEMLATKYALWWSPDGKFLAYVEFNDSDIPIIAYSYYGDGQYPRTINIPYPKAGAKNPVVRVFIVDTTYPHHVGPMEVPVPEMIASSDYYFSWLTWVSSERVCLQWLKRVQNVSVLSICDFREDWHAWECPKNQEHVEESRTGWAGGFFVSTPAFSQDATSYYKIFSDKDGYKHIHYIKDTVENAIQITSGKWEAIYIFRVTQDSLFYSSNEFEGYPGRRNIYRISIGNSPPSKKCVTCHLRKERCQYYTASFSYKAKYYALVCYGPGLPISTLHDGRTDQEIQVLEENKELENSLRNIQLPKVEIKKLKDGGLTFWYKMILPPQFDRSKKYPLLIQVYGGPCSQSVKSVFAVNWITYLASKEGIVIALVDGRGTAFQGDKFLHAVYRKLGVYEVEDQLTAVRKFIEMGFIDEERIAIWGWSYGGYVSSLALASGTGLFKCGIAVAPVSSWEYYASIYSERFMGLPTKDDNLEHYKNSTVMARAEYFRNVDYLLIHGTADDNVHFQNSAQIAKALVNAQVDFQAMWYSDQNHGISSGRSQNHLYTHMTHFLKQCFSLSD

B1: IAB16M2-37 (other)
chain: QVQLVQSGAEVKKPGASVKVSCKASGYTFTEYTIHWVRQAPGQRLEWIGGINPNNGIPNYNQKFKGRVTITVDTSASTAYMELSSLRSEDTAVYYCARRRIAYGYDEGHAMDYWGQGTLVTVSSGSTSGGGSGGGSGGGGSSDIVMTQSPDSLAVSLGERATINCKSSQSLLYSRNQKNYLAWYQQKPGQPPKLLIFWASTRESGVPDRFSGSGSGTDFTLTISRLEPEDFAVYYCQQYYSYPLTFGQGTKVEIKEPKSSDKTHTCPPCPPCGGGSSGGGSGGQPREPQVYTLPPSREEMTKNQVSLTCLVKGFYPSDIAVEWESNGQPENNYKTTPPVLDSDGSFFLYSKLTVDKSRWQQGNVFSCSVMHEALHNHYTQKSLSLSPG
notes: also called IAB16B2-37
Kd [1]: ~0.1 nM
Kd [2]: 1.15 nM
koff [2]: 0.00108 s⁻¹
kon [2]: 935000 M⁻¹ s⁻¹
fold change of KD, murine FAP against human FAP [3]: ~10 fold

B2: IAB16M2-48 (other)
chain: QVQLVQSGAEVKKPGSSVKVSCKASGFSLTNYDINWVRQAPGQGLEWMGLIWTGGGTNYNQKFQGRVTITKDNSTSTAYMELSSLRSEDTAVYYCVRGGPLVWYALDYWGQGTLVTVSSGSTSGGGSGGGSGGGGSSDIQMTQSPSSLSASVGDRVTITCKASQDVSTAVAWYQQKPGKAPKLLIYSASYRYTGVPSRFSGSGSGTDFTLTISSLQPEDFATYYCQQHYSNPRTFGQGTKVEIK
Kd [4]: ~0.1 nM

B3: IAB16M2-43 (other)
chain: QVQLQESGPGLVKPSETLSLTCTVSGFSLTNYDINWIRQPPGKGLEWIGLIWTGGGTNYNPSLKSRVTISKDTSKNQFSLKLSSVTAADTAVYYCVRGGPLVWYALDYWGQGTLVTVSSGSTSGGGSGGGSGGGGSSDIQMTQSPSSLSASVGDRVTITCKASQDVSTAVAWYQQKPGKAPKLLIYSASYRYTGVPSRFSGSGSGTDFTFTISSLQPEDIATYYCQQHYSNPRTFGGGTKVEIKEPKSSDKTHTCPPCPPCGGGSSGGGSGGQPREPQVYTLPPSREEMTKNQVSLTCLVKGFYPSDIAVEWESNGQPENNYKTTPPVLDSDGSFFLYSKLTVDKSRWQQGNVFSCSVMHEALHNHYTQKSLSLSPG
Kd [5]: ~0.1 nM
binding result [6]: binds

B4: IAB16M2-53 (other)
chain: B3 chain with N76S
Kd [7]: ~0.1 nM

B5: IAB16M2-52 (other)
chain: B3 chain with Q140V
Kd [7]: ~0.1 nM

B6: IAB16M2-51 (HC-N76S) (other)
chain: B3 chain with T73N
Kd [4]: ~0.1 nM

B7: IAB16M1-42 (other)
chain: DIQMTQSPSSLSASVGDRVTITCKASQDVSTAVAWYQQKPGKAPKLLIYSASYRYTGVPSRFSGSGSGTDFTFTISSLQPEDIATYYCQQHYSNPRTFGGGTKVEIKGSTSGGGSGGGSGGGGSSQVQLQESGPGLVKPSETLSLTCTVSGFSLTNYDINWIRQPPGKGLEWIGLIWTGGGTNYNPSLKSRVTISKDTSKNQFSLKLSSVTAADTAVYYCVRGGPLVWYALDYWGQGTLVTVSSEPKSSDKTHTCPPCPPCGGGSSGGGSGGQPREPQVYTLPPSREEMTKNQVSLTCLVKGFYPSDIAVEWESNGQPENNYKTTPPVLDSDGSFFLYSKLTVDKSRWQQGNVFSCSVMHEALHNHYTQKSLSLSPG
Kd [5]: ~0.1 nM

B8: IAB16C3-26 (other)
chain: EIVLTQSPGTLSLSPGERATLSCRASQSVSRSYLAWYQQKPGQAPRLLIIGASTRATGIPDRFSGSGSGTDFTLTISRLEPEDFAVYYCQQGQVIPPTFGQGTKVEIKGGGSGGGGEVQLLESGGGLVQPGGSLRLSCAASGFTFSSHAMSWVRQAPGKGLEWVSAIWASGEQYYADSVKGRFTISRDNSKNTLYLQMNSLRAEDTAVYYCAKGWLGNFDYWGQGTLVTVSSGGCPPCPPC
binding result [8]: binds
Kd [9]: ~1 nM

— patent publication US20240390531A1 (IMAGINAB, published 2024)
